Experimental data reported in the DeepSol protein solubility set.

assay: soluble on expression in E. coli; label from the status in PepcDB or PDB records

| Sequence | soluble on expression in E. coli |
| --- | --- |
| MSLTPKKISSISLEVTGSIVSIGLAVYKDIFEYINLVTHKFIYFQDLERKNIELQLEIARLQHLQSEVESVKAENIALKDLLMIAEEEEFEYLTTKLLSVSFNPFSRTALISAGKKQGIEPDQIVVNSGKLVGKIIEVSNNYSKVMLISDVNSRIPIKANSSREQGILAGNNNNSKILYLPNNHLVQKDEEIVTSGHGNIYPAGILVGYVSRVTENDVIVNLAADLSKMEFVQILLPKQEGHHHHHH | soluble |
| MGSDKIHHHHHHMKVDWDHLQFFLVLARTKTLTNAARIIGVEHSTVARRIQALELALGTTLFKREATGYELTLEGMALVPRVEQMEQAFLQIEKPHQPLQGRVRIGTPEGFGTAFLARLLAEFSIQYPLLTIDLIPVPKMIKLSHREADIVVSIERPTSGPYIITRLSDYCLKIYGSQNYLAQNPPIRRLEDLTQHRFVNYIDDLVYSPELYCLERLPLKLNANFRSSSILAQQIAVSAGAGLAILPKFLADDKPELEEVLEQQVRFTHTFWMLTFVDLQHEPRIKLVWDYLRKQADKYQHLLVD | not soluble |
| MGSDKIHHHHHHMDVIDAVNRRMSVRAFKPDPVDAGLIRDLLEAAARAPSGGNLQPWRVQVVGGAPLEALKAAMLQRVASPDPTEYDVYPANLWEPLRSRRFQVGEDMYGALGIPREDKLQRLQWFANNGQGFGAPVQLFFSIDRRCGPPQWSDVGMLMQTFMLLAVERGLDTCPQEFWSHYNKLVDEHVGLPEGHMLFSGMALGYRDADAPVNNFRSRRAPFEEWAELKGF | not soluble |
| MQEILIPLKEKNYKVFLGELPEIKLKQKALIISDSIVAGLHLPYLLERLKALEVRVCVIESGEKYKNFHSLERILNNAFEMQLNRHSLMIALGGGVISDMVGFASSIYFRGIDFINIPTTLLAQVDASVGGKTGINTPYGKNLIGSFHQPKAVYMDLAFLKTLEKREFQAGVAEIIKMAVCFDKNLVERLETKDLKDCLEEVIFQSVNIKAQVVVQDEKEQNIRAGLNYGHTFGHAIEKETDYERFLHGEAIAIGMRMANDLALSLGMLTLKEYERIENLLKKFDLIFHYKILDLQKFYERLFLDKKSENKTIKFILPKGVGAFEVASHIPKETIIKVLEKWH | soluble |
| MSSMTTTDNKAFLNELARLVGSSHLLTDPAKTARYRKGFRSGQGDALAVVFPGSLLELWRVLKACVTADKIILMQAANTGLTEGSTPNGNDYDRDVVIISTLRLDKLHVLGKGEQVLAYPGTTLYSLEKALKPLGREPHSVIGSSCIGASVIGGICNNSGGSLVQRGPAYTEMSLFARINEDGKLTLVNHLGIDLGETPEQILSKLDDDRIKDDDVRHDGRHAHDYDYVHRVRDIEADTPARYNADPDRLFESSGCAGKLAVFAVRLDTFEAEKNQQVFYIGTNQPEVLTEIRRHILANFENLPVAGEYMHRDIYDIAEKYGKDTFLMIDKLGTDKMPFFFNLKGRTDAMLEKVKFFRPHFTDRAMQKFGHLFPSHLPPRMKNWRDKYEHHLLLKMAGDGVGEAKSWLVDYFKQAEGDFFVCTPEEGSKAFLHRFAAAGAAIRYQAVHSDEVEDILALDIALRRNDTEWYEHLPPEIDSQLVHKLYYGHFMCYVFHQDYIVKKGVDVHALKEQMLELLQQRGAQYPAEHNVGHLYKAPETLQKFYRENDPTNSMNPGIGKTSKRKNWQEVE | soluble |
| MGGSHHHHHHGMASALAMAPSPSLVQVYTSPAAVAVWEWQDGLGTWHPYSATVCSFIEQQFVQQKGQRFGLGSLAHSIPLGQADPSLAPYIIDLPSWTQFRQDTGTMRAVRRHLFPQHSAPGRGVVWEWLSDDGSWTAYEASVCDYLEQQVARGNQLVDLAPLGYNYTVNYTTHTQTNKTSSFCRSVRRQAGPPYPVTTIIAPPGHTGVACSCHQCLSGSRTGPVSGRYRHSMTNLPAYPVPQHPPHRTASVFGTHQAFAPYNKPSLSGARSAPRLNTTNAWGAAPPSLGSQPLYRSSLSHLGPQHLPPGSSTSGAVSASLPSGPSSSPGSVPATVPMQMPKPSRVQQALAGMTSVLMSAIGLPVCLSRAPQPTSPPASRLASKSHGSVKRLRKMSVKEATPKPEPEPEQVIKNYTEELKVPPDEDCIICMEKLSTASGYSDVTDSKAIGSLAVGHLTKCSHAFHLLCLLAMYCNGNKDGSLQCPSCKTIYGEKTGTQPQGKMEVLRFQMSLPGHEDCGTILIVYSIPHGIQGPEHPNPGKPFTARGFPRQCYLPDNAQGRKVLELLKVAWKRRLIFTVGTSSTTGETDTVVWNEIHHKTEMDRNITGHGYPDPNYLQNVLAELAAQGVTEDCLEQQ | not soluble |
| PMILGYWNVRGLTHPIRLLLEYTDSSYEEKRYAMGDAPDYDRSQWLNEKFKLGLDFPNLPYLIDGSRKITQSNAIMRYLARKHHLCGETEEERIRADIVENQVMDNRMQLIMLCFNPDFEKQKPEFLKTIPEKMKLYSEFLGKRPWFAGDKVTYVDFLAYDILDQYHIFEPKCLDAFPNLKDFLARFEGLKKISAYMKSSRYLSTPIFSKLAQWSNK | soluble |
| MVENLKQLQERVAVSDGRAKADLVIKNGRIINVFSGEIMDGDIAIKNGYIAGIGSFPDAEKIIDAAGAFIAPGFIDAHVHVESAMVTPAEFARVLLPNGVTTIVTDPHEIANVAGEKGIEFMLEDAKGAPLDMFVMLPSSVPATEGEHNGETLHAEKLHPLYRHEKVIGLAEVMDFPSVAKGSDDILRKIIDAKKEGGRIDGHGAGLTSADLNNYLAVGIRTDHESTTAKEATDRLRAGMFVMLREGTVGRDLLQTIPAVSEKNSHRFCFCTDDKLINDLITEGSINYNIKLAIKNGIDPITAIQMATINAANCHNLPYLGAVAAGYQADIVFLTDIETVEISKVLKNGEVVVDNGVRNEAAFKQQAAVPFVSPPINHHVHLQDLALPLTKETCYVIGMQPNSLFTEKRIEQVTIQGGKFVPTVENDLLKMAVVERHHDTGCVGVGIVKGFGLTEGAIATTVAHDSHNIVAVGVSDEAMKAAIDHITQTGGGIAVVNGAGQVLHDLALPIAGLLSDKSYEEVENDLAGLLNAFKQISTANGFDPFLTLSFLTLPVIPELKLTDQGLFDFATFQIISNEVN | not soluble |
| MGSDKIHHHHHHMLEVIDVWKKYPPKTQALREVSFEAEEGSITAVFGENGSGKTTLLKVIASFLIPDRGKVLIDSVNIVEKPSFAVEKVSISTGYERSFYYRLSVEENLKFFGMLNDLLGKTLKRETERVMKELGLLECRKKRYMELSTGYKKRVDVARALMKKASIYIFDEPCSGVDLRTRLKIHEIMKRLKESGRIVIFASHDLEDLKIADRVIVLKKGEKVLEFSPKKEDLAAVLRGILEIQAFPGD | not soluble |
| ELLPDVRLLYGETPFARTPVMYEPGIIILFSGHKIGYINERVFRYDANEYLLLTVPLPFECETYATSEVPLAGLRLNVDILQLQELLMDIGEDEHFQPSMAASGINSATLSEEILCAAERLLDVMERPLDARILGKQIIREILYYVLTGP | not soluble |
| PAQDNSRFVIRDRNWHPKALTPDYKTSIARSPRQALVSIPQSISETTGPNFSHLGFGAHDHDLLLNFNNGGLPIGERIIVAGRVVDQYGKPVPNTLVEMWQANAGGRHRHKNDRYLAPLDPNFGGVGRCLTDSDGYYSFRTIKPGPYPWRNGPNDWRPAHIHFGISGPSIATKLITQLYFEGDPLIPMCPIVKSIANPEAVQQLIAKLDMNNANPMDCLAYRFDIVLRGQRKTHFENC | soluble |
| MNDHKALKIFLMAAEKRNFAQVARELSMTAAGVTRAIAALECDLGVQLFVRTTRQVSLTTDGAVFAAQIQPAVEALENARRDVRNAHKADEGRLRISAPTWLGKTVLPPILSGFRELYPKMCFEISLSDGLVNIVDDDYDLAIRISSAPSDKFTIWRKIRAVPRILVAAPGSRFTQMKHPSDLTPDDCLAYSGESRRENWILSDGGSSITITAGRAFSANNGEVLADMAADGAGVAMLPGFHIAEHIRSGRLVHVLPGWAPPELWLTLYYPPYQTLPPRIATFSKFFEEQLTAHMVALD | not soluble |
| MDLSIFKNARAKPVPRPAPAGAASGLHDPLAPTIFHEAWWLDASAPDGWSETLVRADNRIVGRLPYMILRKPFGQTSCEMPKFAHFLGPAVAPGPGARANRALKEAQIVRELHEQLPPTGNLYMRMHRGVTDTMVHAEAGLHMLVNFTFEIAPGCEQAIWAGMRDKTRNIIRRAQEKHCVSDTLDPRDFAACYRRNVDEAGHESYYETDEIVRVCTAALERGRGRILSATGPDGGLAAAIFTIWDATSCYYLLATRSRGEDHGATSLLLWEAIRHANRMGLIFDFDGLYTRGNRVFFTGFGGTVHPRYVVCGSTRTYRATAALSKALSRLRRP | not soluble |
